Results published in the supplement of paper PMC9170038.

Test system: MS2 coat protein
Test: apparent KD of MS2 coat protein; higher = weaker reporter binding
Details: Eterna round: R107
How it was run: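 Designed RNA switches were transcribed on-chip from Illumina sequencing clusters. They were then titrated with SNAP-549-labelled MS2 coat protein (twofold steps, 0.7 or 1.5 nM to 3 µM; 0.8–1.5 h to 10–20 min per step) in 100 mM Tris-HCl pH 7.5, 80 mM KCl, 4 mM MgCl2, without or with constant ligand. Apparent KD is the per-design median of normalised cluster binding-curve fits.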

[1] = input ligand: theophylline 20 uM
[2] = input ligand: theophylline 2 mM
[3] = input ligand: tryptophan 2.4 mM

| Sequence | apparent KD of MS2 coat protein (input ligand: arginine 13.2 mM) [nM] | apparent KD of MS2 coat protein (input ligand: none) [nM] | apparent KD of MS2 coat protein [1] [nM] | apparent KD of MS2 coat protein [2] [nM] | apparent KD of MS2 coat protein [3] [nM] |
| --- | --- | --- | --- | --- | --- |
| GUUAUAGACGGAAGGAGCGCGACCACAUGAGGAUCACCCAUGUAUUGUGUUGGUAAUAGGUCGCAGGUAGGUCGCCGGUUAAUGA [#04 Same State - Arginine B] | 27.1 | 36.6 | 50.1 | 38 | 31 |
| GUUAUAUACUCGGCCGCCACUGAGAGAGUCAUGUAAACAUGAGGAUCACCCAUGUAAUAUAUAUACAGGACCGGGAGUAUAGUAA [4.D] | 19.8 | – | 22 | 19.6 | – |
| GUUGAGACCUCGGCCGCCACUCGCCAUGAGGAUCUCCCAUGUAACAUGAGGAUCACCCAUGUACUGAGGACCGGGAGGUCCUUGU [Same State Tryptophan B GF 16] | 12 | – | 18.5 | 15.5 | – |
| GUUGGAUACUCGGCCGCCACUGAGAGAGUCAUGUGAACAUGAGGAUCACCCAUGUAAUAUAUAUACAGGACCGGGAGUGUUGUAA [4.I] | 20.3 | – | 43.7 | 32.5 | – |
| GUUGGUUUGCGAAGGAGCGGGUAUGUUUUCUACUGGAUCCUAACAUGAGGAUCACCCAUGUCCCAGGUAGGUCGCGCGGGCUUUG [12.aA] | 35.6 | 38.6 | 75.2 | 54.5 | 45.8 |
| UAAAACAUGAGGAUCACCCAUGUAAAUGAUACCAGAGUGAUGAUCCUCCCUUGGCAGCAUAACGCUGAUUGAUUACAAUCAGCGA [Mat - Same State Theophlline A - Mod of Eli - D22] | 55.2 | – | 160 | – | 58.3 |
| UAAACUACACAUGAGGAUCACCCAUGUGGCCGAGGACCGGUACGGCCGCCACUCGUGUGUUAAUAAAAGAACCGCAAAGUUCUUU [Raesonisso] | 74.2 | – | 410 | 678 | – |
| UAAAUACAUGAGGAUCACCCAUGUUUGGAUACCAGAUAUGACAUUAUCCCUUGGCAGCCAUUCGUUCCAAAUGCUAUUGUGAAGG [theeternabot_sameState_MS2_Theo_A_26] | 20.6 | – | 30.8 | – | 22 |
| UAAUAAAUAAAUCCAAGGUGAAGGUCAGAUACCAGCCAGAUAACUGGCCCUUGGCAGCUGAAUAAACUUGAGGAACACCCAAGUA [TheoAS 28 #OpenEnded #MS2Late #AlternativeMS2] | 16.7 | 23 | 31.3 | 82 | 22.7 |
| UAAUAAGUGCCGGUUCUCAGAUCCUCAUGUCGAGGACCGGUACGGCCGCCACUCGAAACAUGAGGAUCACCCAUGUAAUAAUAAU [#08 Exclusion Tryptophan A] | 47.8 | – | 105 | 73.1 | – |
| UAAUCGUAGGCGGCCGCCACUUUUUGGUAGUGUCCAUUGUACACUCACAUGAGGAUCACCCAUGUAAGGACCGGGCCCGCAUCAG [theeternabot_exclusion_MS2_Trp_B_32] | 17.9 | – | 24.7 | 17.7 | – |
| UAAUGCAUGACGGCCGCCACUAGAACAUGAGGAUCACCCAUGUACGGCGGCCGUCAUGGGUGGACUAGGACCGGGUCAUGCAUAU [(Trp1)-(Ms2)-(T)'-(M)'-(Trp2)_Design5] | 8.2 | – | 11.6 | 10.5 | – |
| UACAUGAGGAUCACCCAUGUCGGCAGGGAAGGAGCGGCAAUAAAGCCAGGUAGGUCGCCCAUUAGUAUUUAUAAAUAAAUAUCCA [Same State - Arginine A] | 53.6 | 90 | 74.4 | 75.9 | 66.9 |
| UACAUGAGGAUCACCCAUGUGUAGAGGGAUACCAGUGACAGUAAGCGCCCUUGGCAGCCCGUGAACAAUGGGUGAGCUAAAUAGU [#18 Exclusion-TheophyllineA] | 28.7 | 37.9 | 75.5 | 133 | 57.4 |
| UACCGAUGAAGAAGGAGCGAUUUUAUGUUACAUGAGGAUCACCCAUGUGGACUAGGUGAAGAUCAGGUAGGUCGCUUCAUCGGUA [SSAB NP+V+V2 #20] | 19.8 | 20.3 | 31.9 | 22 | 24.5 |
| UACUUACAUGAGGAUCACCCAUGUGGCGAAGGAGCGGCAUGAGGGCCAGGUAGGUCGCGCCAACAUACAUACAUGAGGAUCUCCC [Same State Arginine A 4] | 46.3 | 78.9 | 127 | 118 | 93.1 |
| UAGCGAUUUGGUGAUACCAGACGUGUGCAGUCCUCAGACAUGAGGAUCACCCAUGUAUGCGUCCCUUGGCAGCGCUAUGAGGACA [Theo B Ex t6] | 66.5 | 48.4 | 105 | 201 | 44.3 |
| UAUACAUGAGGAUCACCCAUGUGCCAUGAUACCAGACAUGAAAAUGUCCCUUGGCAGCAUGGGAAAUGUAUAGCGGGAAACCCGA [Slatina] | 52.7 | – | 201 | – | 60.8 |
| UAUAUAUAUCACUAACUGUUGUGGACGUCUCGAGGACCGGUACGGCCGCCACUCGGGCGGCCUCACAUGAGGAUCACCCAUGUCC [XTryp A #4] | 92.9 | – | 192 | 149 | – |

| Sequence | apparent KD of MS2 coat protein (input ligand: arginine 13.2 mM) [nM] | apparent KD of MS2 coat protein (input ligand: none) [nM] | apparent KD of MS2 coat protein [1] [nM] | apparent KD of MS2 coat protein [2] [nM] | apparent KD of MS2 coat protein [3] [nM] |
| --- | --- | --- | --- | --- | --- |
| UAUAUAUUGAUGGAUACCAGCAGAGAAAACGUUUAUCCUAACAUGAGGAUCACCCAUGUAUGCCCUUGGCAGCUGUUGAUAUAUA [8.K] | 21.7 | – | 28.7 | – | 18.4 |
| UAUCCACAUGAGGAUCACCCAUGUAGGGAAGGAGCGGUGGUUGCACCAGGUAGGUCGCCUUGCUGAGGAUAACCGGUGGAAUCGU [Exclusion - Arginine A (Freestyle 28)] | 32.8 | 18.8 | 26.9 | 33.6 | 31.1 |
| UAUGAGCGCACGGCCGCCACUGUCUUCAUCUGUUUGUCUACAUGAGGAUCACCCAUGUUGGUUUACAGGACCGGGUGCAACUAUG [SSTryp B #10] | 26.9 | – | 38.1 | 33.8 | – |
| UCACAUGAGGAUCACCCAUGUACAACUGAAGGAGCGAGACAAAACUCAGGUAGGUCGCAGAAUAAACAAUAGCAUACGACAUGGG [Exclusion Arginine A GF 19] | 44.6 | 31 | 43.1 | 26.3 | 27.7 |
| UCACGACGCAACGUGAAAUAAUAAACAGAAGGAGCGAGGAAAGCCUCAGGUAGGUCGCUGACAUGAGGAUCACCCAUGUAUUACA [Same State Arginine A GF5] | 27.1 | 31.5 | 41.2 | 35.1 | 32.2 |
| UCCACAUGAGGAUCACCCAUGUAAUCAGAUACCAGUGACGAAAGUCACCCUUGGCAGCUGAUUACUUUAGUUCGAGGGUGUUUGA [EThA NP+V+V2 #4 Same Structure] | 84.5 | – | 148 | – | 79.5 |
| UCGACAGUGAACGAUACCAGCGUCACGUGGCCGGUGGUCACAUGAGGAUCACCCAUGUAACGCCCUUGGCAGCGUGCACGUAUCA [Latedirius] | 20.5 | – | 46.3 | – | 20.5 |
| UCGAUGGUAUCUGAUACCAGUAGCGUGCGUUACAUGAGGAUCACCCAUGUGCCUAUACUUUACCCUUGGCAGCAGUGGAUUCGAU [theeternabot_sameState_MS2_Theo_B_22] | 57.1 | – | 144 | – | 241 |
| UCGCCCAGGAAGGAUUCCUGGGAUAUGGAAGGAGCGCUGAUGCCAGCAGGUAGGUCGCCAACGGACAUGAGGAUCACCCAUGUAC [Same State - Arginine A (Freestyle 8)] | 14.5 | 19.9 | 22.7 | 26.6 | 21.2 |
| UCGCGAUAGAGAAGGAGCGUCAACACCACAGAACAUGAGGAUCACCCAUGUGUUACUUUUAGACAGGUAGGUCGCUCUAGCGCUU [JR_Nu_ExcArginiB_Sub028] | 14 | 12.2 | 18.3 | 16.4 | 13.3 |
| UCGCUAUUGUCGGCCGCCACUACUGCAGGGAAACAAAUAUAACCACAUGAGGAUCACCCAUGUCUUAGGACCGGGACACCCAUCU [theeternabot_sameState_MS2_Trp_B_2] | 54.8 | – | 126 | 119 | – |
| UCGCUCUGGGUGGGAUCCGGAGAUGUGGAAGGAGCGCUGGUAACAGCAGGUAGGUCGCCAACGGACAUGAGGAUCACCCAUGUAC [Same State - Arginine A (Freestyle 17)] | 25.2 | 37.3 | 40 | 44.2 | 26.7 |
| UCGGAUGCGGCGGCCGCCACUCGCGGAUAACGAUAGCUUAACAUGAGGAUCACCCAUGUGUCAUGGAGGACCGGGCCCAUACCGU [pbpmullin] | 18.8 | – | 36.4 | 26.3 | – |
| UCGUGUGUUUCGGAUACCAGUGAAAUCGAUACAUGAGGAUCACCCAUGUGAGAGGAUGUACACCCUUGGCAGCUGUCUGUAUCUG [asczmullin] | 14.7 | – | 16.8 | – | 12.1 |
| UCUUCGUUGGCGUCACAAUUCAUGCAAUGCCGAGGACCGGUACGGCCGCCACUCGGACUAAUACAUGAGGAUCACCCAUGUCGUG [theeternabot_exclusion_MS2_Trp_A_5] | 37.9 | – | 111 | 219 | – |
| UCUUUCUAUGUAGAUACCAGCAUGUUAUAUUUCUAAUGACAUGAGGAUCACCCAUGUAAAUGCCCUUGGCAGCUACAUUUUCUUU [SSTHB #4] | 21.6 | – | 22.3 | – | 23.7 |
| UGAACAUGAGGAUCACCCAUGUAGAGGGAAGGAGCGUCGAAGAAGACAGGUAGGUCGCCCAGAAAGAAAUCCUCAUGGAUAAGAA [Same State Arginine A GF2] | 86.2 | 54.4 | 152 | 122 | 69 |
| UGACAUUGCUCAGAUACCAGACAUGAGCAUCAGCCAUGUGCCAACAAGUACAAAAUAAAUGUCCCUUGGCAGCUGAGCAAUGUCU [TheoBX 23 #MS2Left #AlternativeMS2 #Theo22] | 14.1 | 10.9 | 16 | 153 | 12.3 |
